This passage reports Alexa488 fluorescence intensity in HeLa cells (confocal microscopy, 1 µM, 6 h) results from patent publication US20200339681A1.

The target in the assay is heparan sulfate proteoglycan (HSPG) on HeLa cells. Briefly: cell-based or functional assay.

B1: CT-59 (antibody, part only; not given: TMab4 heavy chain variable domain, V domains shown, part only)
VL: DIQMTQSPSSLSASVGDRVTITCKSSQSLLNSRDGKNYLAWYQQKPGKAPKLLIYWASTRESGVPSRFSGSGSGTDFTLTISSLQPEDFATYFCQQYWYWMYTFGQGTKVEIKR
In turn, B1 had an Alexa488 fluorescence intensity in HeLa cells (confocal microscopy, 1 µM, 6 h) of 20%.
